The source of these data is US20140206847A1 (PANASONIC, published 2014).

For the test, the target named is T1, Troponin I derived from human myocardium (human, UniProt P19429 2-210).
T1 construct: Bought protein, fixed on a CM5 chip at approximately 500 RU; also called Troponin I (purchased from Funakoshi)
Put plainly: SPR, Biacore T100; troponin I fixed on CM5 chip, measured similarly to the mutant protein; column head 'Association Rate Ka(M^-1)'. How it is done: Using an intermolecular interaction analyzer Biacore T100 (purchased from GE health care company), the association rate of the mutant protein was measured in accordance with the manual attached to the intermolecular interaction analyzer Biacore T100.
More particularly, Troponin I (purchased from Funakoshi) derived from human myocardium having approximately 500 RU (Resonance Unit) was fixed on a CM5 chip (purchased from GE health care company). This CM5 chip was set in the Biacore T100. Then, aqueous solutions (concentration: 100 nM, 50 nM, 25 nM, 12.5 nM, and 6.25 nM, volume: 150 microliters) containing the purified mutant protein was flowed through the Biacore T100 to measure the association rate of the mutant protein.
Background: Surface plasmon resonance follows binding to a sensor surface in real time, without labels.

T1 sequence (P19429 2-210 limits assumed): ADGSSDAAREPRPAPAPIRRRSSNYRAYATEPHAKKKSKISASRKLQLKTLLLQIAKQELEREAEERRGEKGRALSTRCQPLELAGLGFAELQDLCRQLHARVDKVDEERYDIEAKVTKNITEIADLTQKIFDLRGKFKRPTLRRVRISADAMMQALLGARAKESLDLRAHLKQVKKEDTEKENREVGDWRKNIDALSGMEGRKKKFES

B1: First mutant scFv antibody fragment (scFv)
scFv: DVVLTQSPLTLSVTIGQPASISCKSSQSLLDSDGKTYLNWLLQRPGQSPKRLIYLVSKLDSGVPDRFTGSGSGTDFTLKISRVEAEDLGVYYCWQGTHFPLTFGAGTKLEIKRGGGGSGGGGSGGGGSQLQLQQSGAELVRSGASVKLSCTASGFNIKDYYMNWVKQRPEQGLEWIGWIDPANGDTAYAPRFQVKADMTADKDSDTAYLQLSSLTSEDTAVYYCNADLPMDQWGQGTSVTVSSAAALESFNRNEC
notes: also called first mutant scFv antibody fragment 51; mutant first scFv antibody fragment
In turn, B1 displayed a Ka of 5.11e+09 M⁻¹.
